Data on seven molecules can be found in patent publication US20190015483A1 (CSL BEHRING RECOMBINANT FACILITY, published 2019).

T1: recombinant Factor VIII (CSL627, rVIII-SingleChain) (Homo sapiens (Human), UniProt P00451 20-2351)
T1 construct: also called FVIII
T1 sequence: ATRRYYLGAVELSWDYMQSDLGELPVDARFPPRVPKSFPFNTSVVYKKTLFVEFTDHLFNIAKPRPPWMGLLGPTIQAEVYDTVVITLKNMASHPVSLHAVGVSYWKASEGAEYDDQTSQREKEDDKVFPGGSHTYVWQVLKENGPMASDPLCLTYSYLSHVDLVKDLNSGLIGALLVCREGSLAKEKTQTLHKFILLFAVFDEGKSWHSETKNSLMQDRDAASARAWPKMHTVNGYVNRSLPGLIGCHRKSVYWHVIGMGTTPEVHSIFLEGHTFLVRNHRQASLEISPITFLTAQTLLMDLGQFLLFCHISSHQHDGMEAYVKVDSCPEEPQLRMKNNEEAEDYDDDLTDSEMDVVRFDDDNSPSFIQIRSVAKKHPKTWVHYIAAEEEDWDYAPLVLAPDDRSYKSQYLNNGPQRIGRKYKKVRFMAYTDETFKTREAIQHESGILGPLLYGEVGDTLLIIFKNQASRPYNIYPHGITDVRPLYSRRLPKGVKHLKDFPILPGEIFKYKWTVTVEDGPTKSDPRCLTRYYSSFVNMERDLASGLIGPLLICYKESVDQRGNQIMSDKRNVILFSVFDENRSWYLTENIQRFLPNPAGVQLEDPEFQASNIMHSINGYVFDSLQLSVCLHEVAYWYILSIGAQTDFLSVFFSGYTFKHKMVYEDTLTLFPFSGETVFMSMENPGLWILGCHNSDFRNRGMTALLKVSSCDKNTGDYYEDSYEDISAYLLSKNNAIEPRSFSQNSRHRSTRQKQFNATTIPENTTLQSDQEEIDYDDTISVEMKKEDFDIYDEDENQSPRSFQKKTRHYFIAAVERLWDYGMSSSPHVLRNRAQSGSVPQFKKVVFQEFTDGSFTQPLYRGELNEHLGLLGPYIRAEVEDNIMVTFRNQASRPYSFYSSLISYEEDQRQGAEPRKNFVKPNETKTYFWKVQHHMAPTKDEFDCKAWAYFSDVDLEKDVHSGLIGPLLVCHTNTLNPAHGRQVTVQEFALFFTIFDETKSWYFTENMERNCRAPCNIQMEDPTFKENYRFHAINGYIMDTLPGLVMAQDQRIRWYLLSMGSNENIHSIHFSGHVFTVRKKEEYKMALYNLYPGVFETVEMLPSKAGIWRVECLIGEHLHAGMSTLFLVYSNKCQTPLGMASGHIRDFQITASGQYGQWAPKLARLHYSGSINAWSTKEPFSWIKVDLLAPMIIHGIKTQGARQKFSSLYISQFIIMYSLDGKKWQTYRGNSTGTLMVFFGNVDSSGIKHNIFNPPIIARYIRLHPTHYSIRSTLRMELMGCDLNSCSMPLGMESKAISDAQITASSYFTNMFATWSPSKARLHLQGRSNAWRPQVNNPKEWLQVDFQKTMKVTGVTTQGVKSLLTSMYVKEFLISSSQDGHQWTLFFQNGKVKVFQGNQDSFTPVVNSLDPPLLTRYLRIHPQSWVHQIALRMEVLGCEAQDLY

B1: Hu-vWF[764-1270]-8His S764P-S766F (other)
chain: PLFCRPPMVKLVCPADNLRAEGLECTKTCQNYDLECMSMGCVSGCLCPPGMVRHENRCVALERCPCFHQGKEYAPGETVKIGCNTCVCRDRKWNCTDHVCDATCSTIGMAHYLTFDGLKYLFPGECQYVLVQDYCGSNPGTFRILVGNKGCSHPSVKCKKRVTILVEGGEIELFDGEVNVKRPMKDETHFEVVESGRYIILLLGKALSVVWDRHLSISVVLKQTYQEKVCGLCGNFDGIQNNDLTSSNLQVEEDPVDFGNSWKVSSQCADTRKVPLDSSPATCHNNIMKQTMVDSSCRILTSDVFQDCNKLVDPEPYLDVCIYDTCSCESIGDCACFCDTIAAYAHVCAQHGKVVTWRTATLCPQSCEERNLRENGYECEWRYNSCAPACQVTCQHPEPLACPVQCVEGCHAHCPPGKILDELLQTCVDPEDCPVCEVAGRRFASGKKVTLNPSDPEHCQICHCDVVNLTCEACQEPGGLVVPPTDAPVSPTTLYVEDISEPPLHDFHHHHHHHH
B2: Hu-vWF[764-1270]-8His S764P-S766G (other)
chain: PLGCRPPMVKLVCPADNLRAEGLECTKTCQNYDLECMSMGCVSGCLCPPGMVRHENRCVALERCPCFHQGKEYAPGETVKIGCNTCVCRDRKWNCTDHVCDATCSTIGMAHYLTFDGLKYLFPGECQYVLVQDYCGSNPGTFRILVGNKGCSHPSVKCKKRVTILVEGGEIELFDGEVNVKRPMKDETHFEVVESGRYIILLLGKALSVVWDRHLSISVVLKQTYQEKVCGLCGNFDGIQNNDLTSSNLQVEEDPVDFGNSWKVSSQCADTRKVPLDSSPATCHNNIMKQTMVDSSCRILTSDVFQDCNKLVDPEPYLDVCIYDTCSCESIGDCACFCDTIAAYAHVCAQHGKVVTWRTATLCPQSCEERNLRENGYECEWRYNSCAPACQVTCQHPEPLACPVQCVEGCHAHCPPGKILDELLQTCVDPEDCPVCEVAGRRFASGKKVTLNPSDPEHCQICHCDVVNLTCEACQEPGGLVVPPTDAPVSPTTLYVEDISEPPLHDFHHHHHHHH
B3: Hu-vWF[764-1270]-8His S764P-S766M (other)
chain: PLMCRPPMVKLVCPADNLRAEGLECTKTCQNYDLECMSMGCVSGCLCPPGMVRHENRCVALERCPCFHQGKEYAPGETVKIGCNTCVCRDRKWNCTDHVCDATCSTIGMAHYLTFDGLKYLFPGECQYVLVQDYCGSNPGTFRILVGNKGCSHPSVKCKKRVTILVEGGEIELFDGEVNVKRPMKDETHFEVVESGRYIILLLGKALSVVWDRHLSISVVLKQTYQEKVCGLCGNFDGIQNNDLTSSNLQVEEDPVDFGNSWKVSSQCADTRKVPLDSSPATCHNNIMKQTMVDSSCRILTSDVFQDCNKLVDPEPYLDVCIYDTCSCESIGDCACFCDTIAAYAHVCAQHGKVVTWRTATLCPQSCEERNLRENGYECEWRYNSCAPACQVTCQHPEPLACPVQCVEGCHAHCPPGKILDELLQTCVDPEDCPVCEVAGRRFASGKKVTLNPSDPEHCQICHCDVVNLTCEACQEPGGLVVPPTDAPVSPTTLYVEDISEPPLHDFHHHHHHHH
B4: Hu-vWF[764-1270]-8His S764P-S766K (other)
chain: PLKCRPPMVKLVCPADNLRAEGLECTKTCQNYDLECMSMGCVSGCLCPPGMVRHENRCVALERCPCFHQGKEYAPGETVKIGCNTCVCRDRKWNCTDHVCDATCSTIGMAHYLTFDGLKYLFPGECQYVLVQDYCGSNPGTFRILVGNKGCSHPSVKCKKRVTILVEGGEIELFDGEVNVKRPMKDETHFEVVESGRYIILLLGKALSVVWDRHLSISVVLKQTYQEKVCGLCGNFDGIQNNDLTSSNLQVEEDPVDFGNSWKVSSQCADTRKVPLDSSPATCHNNIMKQTMVDSSCRILTSDVFQDCNKLVDPEPYLDVCIYDTCSCESIGDCACFCDTIAAYAHVCAQHGKVVTWRTATLCPQSCEERNLRENGYECEWRYNSCAPACQVTCQHPEPLACPVQCVEGCHAHCPPGKILDELLQTCVDPEDCPVCEVAGRRFASGKKVTLNPSDPEHCQICHCDVVNLTCEACQEPGGLVVPPTDAPVSPTTLYVEDISEPPLHDFHHHHHHHH
B5: Hu-vWF[764-1270]-8His S764P-S766H (other)
chain: PLHCRPPMVKLVCPADNLRAEGLECTKTCQNYDLECMSMGCVSGCLCPPGMVRHENRCVALERCPCFHQGKEYAPGETVKIGCNTCVCRDRKWNCTDHVCDATCSTIGMAHYLTFDGLKYLFPGECQYVLVQDYCGSNPGTFRILVGNKGCSHPSVKCKKRVTILVEGGEIELFDGEVNVKRPMKDETHFEVVESGRYIILLLGKALSVVWDRHLSISVVLKQTYQEKVCGLCGNFDGIQNNDLTSSNLQVEEDPVDFGNSWKVSSQCADTRKVPLDSSPATCHNNIMKQTMVDSSCRILTSDVFQDCNKLVDPEPYLDVCIYDTCSCESIGDCACFCDTIAAYAHVCAQHGKVVTWRTATLCPQSCEERNLRENGYECEWRYNSCAPACQVTCQHPEPLACPVQCVEGCHAHCPPGKILDELLQTCVDPEDCPVCEVAGRRFASGKKVTLNPSDPEHCQICHCDVVNLTCEACQEPGGLVVPPTDAPVSPTTLYVEDISEPPLHDFHHHHHHHH
B6: Hu-vWF[764-1270]-8His S764P-S766I (other)
chain: PLICRPPMVKLVCPADNLRAEGLECTKTCQNYDLECMSMGCVSGCLCPPGMVRHENRCVALERCPCFHQGKEYAPGETVKIGCNTCVCRDRKWNCTDHVCDATCSTIGMAHYLTFDGLKYLFPGECQYVLVQDYCGSNPGTFRILVGNKGCSHPSVKCKKRVTILVEGGEIELFDGEVNVKRPMKDETHFEVVESGRYIILLLGKALSVVWDRHLSISVVLKQTYQEKVCGLCGNFDGIQNNDLTSSNLQVEEDPVDFGNSWKVSSQCADTRKVPLDSSPATCHNNIMKQTMVDSSCRILTSDVFQDCNKLVDPEPYLDVCIYDTCSCESIGDCACFCDTIAAYAHVCAQHGKVVTWRTATLCPQSCEERNLRENGYECEWRYNSCAPACQVTCQHPEPLACPVQCVEGCHAHCPPGKILDELLQTCVDPEDCPVCEVAGRRFASGKKVTLNPSDPEHCQICHCDVVNLTCEACQEPGGLVVPPTDAPVSPTTLYVEDISEPPLHDFHHHHHHHH
B7: Hu-vWF[764-1270]-8His S764P-S766L (other)
chain: PLLCRPPMVKLVCPADNLRAEGLECTKTCQNYDLECMSMGCVSGCLCPPGMVRHENRCVALERCPCFHQGKEYAPGETVKIGCNTCVCRDRKWNCTDHVCDATCSTIGMAHYLTFDGLKYLFPGECQYVLVQDYCGSNPGTFRILVGNKGCSHPSVKCKKRVTILVEGGEIELFDGEVNVKRPMKDETHFEVVESGRYIILLLGKALSVVWDRHLSISVVLKQTYQEKVCGLCGNFDGIQNNDLTSSNLQVEEDPVDFGNSWKVSSQCADTRKVPLDSSPATCHNNIMKQTMVDSSCRILTSDVFQDCNKLVDPEPYLDVCIYDTCSCESIGDCACFCDTIAAYAHVCAQHGKVVTWRTATLCPQSCEERNLRENGYECEWRYNSCAPACQVTCQHPEPLACPVQCVEGCHAHCPPGKILDELLQTCVDPEDCPVCEVAGRRFASGKKVTLNPSDPEHCQICHCDVVNLTCEACQEPGGLVVPPTDAPVSPTTLYVEDISEPPLHDFHHHHHHHH

The experiment concerns the target T1, recombinant Factor VIII (CSL627, …). Briefly: SPR, anti-His capture. In a few lines:
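His-tagged mutants captured from culture medium (40–150 RU) on anti-His CM-5 surface at 37° C; FVIII injected 5 min, dissociation 5 min, at 1 nM in screening. Double-referenced sensorgrams fitted to a 1:1 kinetic model.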
(In general: In SPR one partner is held on a chip, and binding of the other changes the refractive index at the surface.)
What is called Kd is the free concentration of one partner at which half of the binding sites on the other are occupied at equilibrium, for simple one-to-one binding. The koff is a measure of how fast the partners let go of each other. A word on the kon: it is a measure of how fast the partners come together. On to B1, for which the Kd stood at 7.41 pM, the koff was found to be 0.0001 s⁻¹ and the on-rate (kon) was 1.35e+07 M⁻¹ s⁻¹.

As to B2, the dissociation constant (Kd) is 21.7 pM, the off-rate constant (koff) came to 0.000388 s⁻¹ and the association rate constant (kon) is 1.79e+07 M⁻¹ s⁻¹.

As for B3, the dissociation constant Kd came to 4.88 pM, the koff came to 5.76e-05 s⁻¹ and the on-rate constant (kon) amounted to 1.18e+07 M⁻¹ s⁻¹.

Take B4: the Kd is 14 pM, the dissociation rate constant (koff) amounted to 0.000301 s⁻¹ and the on-rate constant (kon) was 2.15e+07 M⁻¹ s⁻¹.

With B5, the Kd came to 6.76 pM, the off-rate (koff) amounted to 9.47e-05 s⁻¹ and the kon was determined as 1.4e+07 M⁻¹ s⁻¹.

On to B6, for which the Kd was 5.23 pM, the “fold decrease in off-rate against wild type vWF” value is 22 fold, the “fold increase in affinity against wild type vWF” value turned out to be 30 fold and the dissociation rate constant (koff) came to 5.14e-05 s⁻¹. Moreover, the kon stood at 9.84e+06 M⁻¹ s⁻¹.

Regarding B7, the equilibrium dissociation constant (Kd) is 6.06 pM, the koff was 8.74e-05 s⁻¹ and the on-rate (kon) was determined as 1.44e+07 M⁻¹ s⁻¹.
